In assay [1] the target is trkC.IgG (untagged trk.IgG fusion of the trkC extracellular domain and IgG-1 Fc) (human) (UniProt Q16288). Kind of assay: competitive displacement of iodinated NT3 from trkC.IgG in 293 cell supernatant.
Assay [2] has as its target gD.trkC.IgG (gD tagged trkC.IgG fusion protein) (Herpes simplex virus; human) (UniProt Q16288). Kind of assay: competitive displacement of iodinated NT3 from gD tagged trkC.IgG in 293 cell supernatant.
Assay [3] has as its target gD.trkB.IgG (gD tagged trkB.IgG fusion protein) (Herpes simplex virus; human) (UniProt Q16620). Briefly: competitive displacement of iodinated NT5 from gD tagged trkB.IgG in 293 cell supernatant.

For 2 molecules, IC50 results are on record in US20020137113A1.

One may read the IC50 as the point on the concentration scale where inhibition reaches its midpoint. A low value points to higher potency.

B1: neurotrophin 3 (NT3) (ligand, UniProt P20783 139-257, looked up)
chain: YAEHKSHRGEYSVCDSESLWVTDKSSAIDIRGHQVTVLGEIKTGNSPVKQYFYETRCKEARPVKNGCRGIDDKHWNSQCKTSQTYVRALTSENNKLVGWRWIRIDTSCVCALSRKIGRT
With B1, the IC50 in assay [1] is 0.0311 nM; in assay [2], 0.0302 nM.

B2: neurotrophin 5 (NT5) (ligand, UniProt P34130 81-210, looked up)
chain: GVSETAPASRRGELAVCDAVSGWVTDRRTAVDLRGREVEVLGEVPAAGGSPLRQYFFETRCKADNAEEGGPGAGGGGCRGVDRRHWVSECKAKQSYVRALTADAQGRVGWRWIRIDTACVCTLLSRTGRA
Turning to B2, the IC50 in assay [3] came out at 0.0121 nM. In other words, the picomolar range.
